Measurements published in the supplement of paper PMC10065799, “High-throughput profiling of sequence recognition by tyrosine kinases and SH2 domains using bacterial peptide display” (eLife, 2023).

Tests used:
AncSZ = assay: phosphorylation enrichment, bacterial display (enrichment ratio); higher = better substrate or ligand; peptides without Tyr show the background
EPHB1 = EPHB1 (UniProt P54762); assay: as above
EPHB2 = EPHB2 (UniProt P29323); assay: as above
FGFR1 = FGFR1 (UniProt P11362); assay: as above
FGFR3 = FGFR3 (UniProt P22607); assay: as above
Sequence of FGFR3 (P22607 whole entry, looked up): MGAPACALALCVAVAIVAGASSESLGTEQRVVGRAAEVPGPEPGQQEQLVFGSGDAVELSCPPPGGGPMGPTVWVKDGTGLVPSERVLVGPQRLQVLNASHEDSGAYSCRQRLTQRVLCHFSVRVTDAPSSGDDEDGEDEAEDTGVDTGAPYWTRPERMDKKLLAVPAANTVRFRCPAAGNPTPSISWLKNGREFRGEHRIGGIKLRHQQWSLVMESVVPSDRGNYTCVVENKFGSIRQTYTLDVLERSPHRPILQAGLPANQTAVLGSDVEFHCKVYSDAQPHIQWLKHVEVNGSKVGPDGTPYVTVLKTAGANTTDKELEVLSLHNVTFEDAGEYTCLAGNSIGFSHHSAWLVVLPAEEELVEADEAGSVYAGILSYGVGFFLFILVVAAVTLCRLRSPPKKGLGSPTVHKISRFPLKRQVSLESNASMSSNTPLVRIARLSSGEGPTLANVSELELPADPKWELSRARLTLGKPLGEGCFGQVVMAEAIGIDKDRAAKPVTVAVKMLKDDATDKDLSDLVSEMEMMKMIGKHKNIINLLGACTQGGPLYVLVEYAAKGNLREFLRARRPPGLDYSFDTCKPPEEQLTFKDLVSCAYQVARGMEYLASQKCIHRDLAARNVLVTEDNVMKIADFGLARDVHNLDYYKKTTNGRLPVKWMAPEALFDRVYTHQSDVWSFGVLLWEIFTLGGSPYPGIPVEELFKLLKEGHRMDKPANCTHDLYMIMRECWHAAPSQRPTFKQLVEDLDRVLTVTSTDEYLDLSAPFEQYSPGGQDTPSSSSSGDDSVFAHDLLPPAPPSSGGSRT

Fer (mouse) = assay: as above
Fes = Fes (UniProt P07332); assay: as above
Sequence of Fes (P07332 whole entry, looked up): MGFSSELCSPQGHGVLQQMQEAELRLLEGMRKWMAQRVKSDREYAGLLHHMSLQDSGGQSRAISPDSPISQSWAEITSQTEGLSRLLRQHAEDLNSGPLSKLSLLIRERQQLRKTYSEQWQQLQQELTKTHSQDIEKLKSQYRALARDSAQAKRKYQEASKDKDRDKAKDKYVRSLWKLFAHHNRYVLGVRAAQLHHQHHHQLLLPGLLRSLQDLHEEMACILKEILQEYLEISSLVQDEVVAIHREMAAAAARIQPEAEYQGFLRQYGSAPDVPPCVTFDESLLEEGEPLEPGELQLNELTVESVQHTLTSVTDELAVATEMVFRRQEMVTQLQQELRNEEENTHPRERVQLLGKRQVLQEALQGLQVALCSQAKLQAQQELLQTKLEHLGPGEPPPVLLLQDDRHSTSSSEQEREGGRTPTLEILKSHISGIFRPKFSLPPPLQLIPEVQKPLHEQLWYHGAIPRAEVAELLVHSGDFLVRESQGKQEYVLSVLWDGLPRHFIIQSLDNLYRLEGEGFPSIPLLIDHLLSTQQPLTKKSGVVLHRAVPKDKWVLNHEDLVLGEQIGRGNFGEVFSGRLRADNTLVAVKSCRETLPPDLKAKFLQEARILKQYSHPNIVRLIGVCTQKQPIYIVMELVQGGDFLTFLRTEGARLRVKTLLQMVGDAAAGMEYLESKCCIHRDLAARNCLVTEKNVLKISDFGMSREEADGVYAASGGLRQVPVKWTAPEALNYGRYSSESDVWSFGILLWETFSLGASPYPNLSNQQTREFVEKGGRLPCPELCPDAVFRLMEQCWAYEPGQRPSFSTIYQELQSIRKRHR

Fyn = Fyn (UniProt P06241); assay: as above
Hck = Hck (UniProt P08631); assay: as above
Jak2 = Jak2 (UniProt O60674); assay: as above
Sequence of Jak2 (O60674 whole entry, looked up): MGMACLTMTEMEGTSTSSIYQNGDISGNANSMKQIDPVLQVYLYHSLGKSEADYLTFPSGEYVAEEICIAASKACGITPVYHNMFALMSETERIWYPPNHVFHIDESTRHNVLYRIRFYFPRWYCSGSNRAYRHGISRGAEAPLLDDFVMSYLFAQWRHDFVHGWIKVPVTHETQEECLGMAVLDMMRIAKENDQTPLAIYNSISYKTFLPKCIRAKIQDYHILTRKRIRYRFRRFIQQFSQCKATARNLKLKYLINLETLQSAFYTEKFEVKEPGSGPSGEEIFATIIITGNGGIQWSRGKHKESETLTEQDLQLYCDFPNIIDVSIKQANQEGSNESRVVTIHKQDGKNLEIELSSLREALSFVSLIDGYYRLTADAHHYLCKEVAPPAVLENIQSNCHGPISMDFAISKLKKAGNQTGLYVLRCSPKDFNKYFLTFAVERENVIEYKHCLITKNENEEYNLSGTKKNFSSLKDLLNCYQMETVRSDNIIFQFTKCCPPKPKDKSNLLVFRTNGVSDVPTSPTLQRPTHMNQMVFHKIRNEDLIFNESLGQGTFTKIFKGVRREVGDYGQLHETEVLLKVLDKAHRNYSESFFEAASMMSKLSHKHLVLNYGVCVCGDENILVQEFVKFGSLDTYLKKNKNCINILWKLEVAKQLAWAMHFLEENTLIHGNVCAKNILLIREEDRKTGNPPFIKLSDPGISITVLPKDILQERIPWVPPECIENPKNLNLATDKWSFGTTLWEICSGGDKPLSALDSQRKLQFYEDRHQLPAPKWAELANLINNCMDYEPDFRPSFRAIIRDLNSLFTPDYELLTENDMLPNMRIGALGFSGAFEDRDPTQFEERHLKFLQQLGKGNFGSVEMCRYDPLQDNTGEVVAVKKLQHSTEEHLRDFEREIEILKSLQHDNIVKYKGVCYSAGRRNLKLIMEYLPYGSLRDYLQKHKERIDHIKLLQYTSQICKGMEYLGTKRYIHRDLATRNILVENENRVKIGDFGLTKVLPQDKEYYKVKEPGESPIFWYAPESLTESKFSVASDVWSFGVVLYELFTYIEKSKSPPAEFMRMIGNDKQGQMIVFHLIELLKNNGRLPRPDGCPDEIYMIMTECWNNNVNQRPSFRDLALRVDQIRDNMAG

MERTK = MERTK (UniProt Q12866); assay: as above
Sequence of MERTK (Q12866 whole entry, looked up): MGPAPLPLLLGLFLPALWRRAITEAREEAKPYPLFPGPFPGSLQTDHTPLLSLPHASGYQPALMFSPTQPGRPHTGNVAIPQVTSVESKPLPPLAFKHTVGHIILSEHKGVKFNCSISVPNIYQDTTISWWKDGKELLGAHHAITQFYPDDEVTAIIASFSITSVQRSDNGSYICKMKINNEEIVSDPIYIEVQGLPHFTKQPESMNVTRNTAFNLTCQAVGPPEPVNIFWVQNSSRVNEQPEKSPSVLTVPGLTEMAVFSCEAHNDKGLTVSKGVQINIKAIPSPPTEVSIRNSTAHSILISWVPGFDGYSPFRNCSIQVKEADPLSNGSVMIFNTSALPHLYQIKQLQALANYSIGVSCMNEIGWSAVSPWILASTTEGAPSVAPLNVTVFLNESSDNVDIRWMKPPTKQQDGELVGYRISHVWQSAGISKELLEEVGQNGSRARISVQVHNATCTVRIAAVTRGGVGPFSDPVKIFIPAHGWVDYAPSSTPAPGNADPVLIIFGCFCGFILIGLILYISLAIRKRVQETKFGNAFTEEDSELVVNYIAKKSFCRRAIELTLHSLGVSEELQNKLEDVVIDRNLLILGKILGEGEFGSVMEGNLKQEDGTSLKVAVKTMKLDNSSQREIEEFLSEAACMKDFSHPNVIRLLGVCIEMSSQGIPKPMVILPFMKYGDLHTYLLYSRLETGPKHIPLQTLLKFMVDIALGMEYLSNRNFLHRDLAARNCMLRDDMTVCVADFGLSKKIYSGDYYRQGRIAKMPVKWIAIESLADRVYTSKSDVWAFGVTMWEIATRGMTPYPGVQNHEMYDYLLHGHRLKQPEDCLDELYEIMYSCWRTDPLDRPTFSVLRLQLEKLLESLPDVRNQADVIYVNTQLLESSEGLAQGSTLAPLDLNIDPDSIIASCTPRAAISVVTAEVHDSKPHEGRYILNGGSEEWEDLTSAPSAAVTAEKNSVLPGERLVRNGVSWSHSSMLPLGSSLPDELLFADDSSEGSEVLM

c-Abl (mouse) = assay: as above
c-Src = assay: as above
Grb2 SH2 = Grb2 SH2 (UniProt P62993); assay: SH2 binding enrichment of the phosphorylated peptide, bacterial display (enrichment ratio); higher = better substrate or ligand; peptides without Tyr show the background
Sequence of Grb2 SH2 (P62993 whole entry, looked up): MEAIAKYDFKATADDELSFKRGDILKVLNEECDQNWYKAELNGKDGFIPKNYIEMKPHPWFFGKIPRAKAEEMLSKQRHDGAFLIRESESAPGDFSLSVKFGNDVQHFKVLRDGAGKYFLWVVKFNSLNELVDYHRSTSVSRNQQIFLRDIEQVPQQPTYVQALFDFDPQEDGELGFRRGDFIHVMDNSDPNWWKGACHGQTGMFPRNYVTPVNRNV

SHP2-C SH2 = assay: as above
c-Src SH2 = assay: as above
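For SH2 binding enrichment of the phosphorylated peptide, bacterial display in this document: peptide library displayed on the E. coli surface as eCPX fusions, selected cells deep-sequenced, score is each peptide's frequency after selection divided by its frequency in the input.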
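For phosphorylation enrichment, bacterial display in this document: 11-residue human phosphosite peptides and single-mutation variants displayed on the E. coli surface, counted by deep sequencing, each peptide's frequency after selection divided by its frequency in the unselected input library; frequency after pTyr selection over input frequency; kinase dosed for 20-30% of maximal phosphorylation in three min.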

Sequence of EPHB1 (P54762 whole entry, looked up): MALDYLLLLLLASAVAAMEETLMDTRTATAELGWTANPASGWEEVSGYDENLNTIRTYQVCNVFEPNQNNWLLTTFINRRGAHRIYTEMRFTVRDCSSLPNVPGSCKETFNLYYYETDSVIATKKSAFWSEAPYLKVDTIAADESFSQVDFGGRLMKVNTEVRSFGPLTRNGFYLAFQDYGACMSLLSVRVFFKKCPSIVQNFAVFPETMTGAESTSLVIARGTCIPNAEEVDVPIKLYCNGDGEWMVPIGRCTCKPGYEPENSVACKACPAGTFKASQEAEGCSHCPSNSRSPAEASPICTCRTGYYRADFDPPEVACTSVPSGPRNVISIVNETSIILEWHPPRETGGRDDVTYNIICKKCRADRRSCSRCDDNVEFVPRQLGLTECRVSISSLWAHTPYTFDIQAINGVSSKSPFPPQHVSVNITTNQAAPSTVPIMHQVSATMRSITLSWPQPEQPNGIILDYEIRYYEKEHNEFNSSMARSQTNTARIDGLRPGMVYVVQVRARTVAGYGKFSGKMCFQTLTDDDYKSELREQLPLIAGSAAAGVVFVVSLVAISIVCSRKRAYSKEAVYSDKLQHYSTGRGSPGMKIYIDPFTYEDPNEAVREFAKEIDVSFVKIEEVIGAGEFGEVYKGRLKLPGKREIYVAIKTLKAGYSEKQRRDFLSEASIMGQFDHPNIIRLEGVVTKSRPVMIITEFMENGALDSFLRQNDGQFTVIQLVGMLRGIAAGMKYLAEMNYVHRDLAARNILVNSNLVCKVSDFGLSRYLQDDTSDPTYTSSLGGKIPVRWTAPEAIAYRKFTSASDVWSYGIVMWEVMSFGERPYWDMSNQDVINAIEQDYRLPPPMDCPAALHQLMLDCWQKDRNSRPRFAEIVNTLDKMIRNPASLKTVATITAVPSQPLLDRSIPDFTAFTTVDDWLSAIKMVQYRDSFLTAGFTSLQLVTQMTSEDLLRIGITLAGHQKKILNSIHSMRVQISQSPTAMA

| Sequence | phosphorylation enrichment (AncSZ) | phosphorylation enrichment (EPHB1) | phosphorylation enrichment (EPHB2) | phosphorylation enrichment (FGFR1) | phosphorylation enrichment (FGFR3) | phosphorylation enrichment (Fer (mouse)) | phosphorylation enrichment (Fes) | phosphorylation enrichment (Fyn) | phosphorylation enrichment (Hck) | phosphorylation enrichment (Jak2) | phosphorylation enrichment (MERTK) | phosphorylation enrichment (c-Abl (mouse)) | phosphorylation enrichment (c-Src) | SH2 binding enrichment (Grb2 SH2) | SH2 binding enrichment (SHP2-C SH2) | SH2 binding enrichment (c-Src SH2) |
| --- | --- | --- | --- | --- | --- | --- | --- | --- | --- | --- | --- | --- | --- | --- | --- | --- |
| VAVTKYCKEEL [ATP7B_Y1078] | 0.877 | 0.508 | 0.547 | 0.498 | 0.776 | 0.494 | 0.917 | 0.455 | 0.593 | 0.844 | 0.37 | 0.651 | 0.477 | 0.813 | 0.729 | 0.53 |
| VCDSNYSASRW [LRP5_Y1552_D1551N] | 0.719 | 1.62 | 1.85 | 0.509 | 0.626 | 0.513 | 0.864 | 0.483 | 0.508 | 0.618 | 0.426 | 0.507 | 0.396 | 0.872 | 0.7 | 0.648 |
| VDESLYKTHPQ [HK1_Y417_G414E] | 0.904 | 0.513 | 0.706 | 0.644 | 0.699 | 0.572 | 0.989 | 0.592 | 0.656 | 0.811 | 0.553 | 0.9 | 0.541 | 0.76 | 0.624 | 0.458 |
| VDLSKYITTIA [FAS_Y232] | 0.657 | 0.378 | 0.341 | 0.363 | 0.452 | 0.394 | 0.815 | 0.348 | 0.407 | 0.67 | 0.426 | 0.513 | 0.424 | 0.881 | 0.604 | 0.451 |
| VDSAHYQLLET [DTX3L_Y385_K386Q] | 0.946 | 0.813 | 0.616 | 1.14 | 0.952 | 4.07 | 0.909 | 0.588 | 0.709 | 0.891 | 1.13 | 0.728 | 0.705 | 0.677 | 0.541 | 6.34 |
| VDTPMYATMQR [TPO_Y55_A53P] | 0.826 | 1.1 | 0.838 | 0.52 | 0.684 | 0.706 | 0.942 | 3.58 | 5.46 | 0.593 | 1.81 | 2.11 | 3.3 | 0.803 | 1.27 | 2.09 |
| VECRVYAEDPY [PCCA_Y401] | 1.47 | 0.908 | 0.794 | 0.619 | 1.13 | 0.708 | 1.73 | 0.612 | 0.686 | 1.26 | 0.56 | 1.28 | 0.75 | 0.807 | 0.658 | 0.603 |
| VEDDMYRKTCT [XPA_Y257_L252V] | 1.33 | 0.676 | 0.636 | 0.559 | 0.868 | 0.696 | 1.3 | 0.602 | 0.626 | 1.33 | 0.507 | 0.932 | 0.544 | 0.894 | 0.828 | 0.494 |
| VEDQFYRVDCF [FHL1_Y208_C209R_YF] | 1.16 | 0.692 | 0.587 | 0.522 | 0.831 | 0.559 | 1.34 | 0.693 | 0.551 | 1.24 | 0.557 | 0.863 | 1.1 | 0.875 | 0.601 | 0.515 |
| VERIGYDFIPT [CBS_Y308_G305R] | 0.759 | 0.544 | 0.461 | 0.56 | 0.605 | 0.417 | 0.801 | 0.529 | 0.571 | 0.611 | 0.521 | 0.593 | 0.434 | 0.934 | 0.686 | 3.49 |
| VGQRPYQPLPE [REEP3_Y170] | 0.617 | 0.38 | 0.424 | 0.47 | 0.525 | 0.336 | 0.649 | 0.375 | 0.36 | 0.505 | 0.406 | 0.547 | 0.393 | 1.01 | 0.798 | 0.534 |
| VGSIEYLKREW [KCNMA1_Y885] | 0.823 | 0.35 | 0.487 | 0.523 | 0.612 | 0.447 | 0.967 | 0.359 | 0.511 | 0.927 | 0.38 | 0.488 | 0.446 | 0.977 | 1.06 | 0.473 |
| VGSIKYLKREW [KCNMA1_Y885_E884K] | 0.68 | 0.56 | 0.505 | 0.412 | 0.431 | 0.465 | 0.754 | 0.395 | 0.446 | 0.61 | 0.311 | 0.482 | 0.38 | 1.16 | 0.723 | 0.802 |
| VHLFAYDWISI [BEST1_Y227_G222V_YF] | 1.27 | 1.06 | 0.868 | 1.41 | 1.17 | 10.4 | 1.38 | 0.589 | 0.804 | 1.04 | 4.12 | 0.69 | 0.651 | 1.3 | 1.36 | 0.972 |
| VIEFSYTSADG [DHCR7_Y382_C380Y_YF] | 0.944 | 0.562 | 0.504 | 0.444 | 0.652 | 0.499 | 1.16 | 0.442 | 0.503 | 0.764 | 0.415 | 0.608 | 0.341 | 0.87 | 0.858 | 1.97 |
| VIIVLYFSLWK [SLC6A2_Y249_V245I] | 0.774 | 0.363 | 0.371 | 0.462 | 0.548 | 0.471 | 0.631 | 0.375 | 0.369 | 0.702 | 0.354 | 0.693 | 0.386 | 1.95 | 1.74 | 1.3 |
